This note sets out measurements from article doi:10.1101/2021.01.28.428001 (bioRxiv, 2021).

For series [1], the target named is 2xFLAG-MBP-CYT (cytosolic domain of NOMO1 fused to maltose binding protein) (human). The series can be described thus: SEC.
The series “SEC-MALS” deals with the molecule itself. Description: SEC-MALS.

For “2xFLAG-MBP-CYT (cytosolic domain of NOMO1 fused to maltose binding protein) (domain or fragment)”, in series [1], the stoichiometry N is 2.

B1: Nodal Modulator 1 (NOMO1), full length, with C-terminal FLAG tag (natural protein, human, UniProt Q15155 32-1222, looked up)
chain: SEDIVVGCGGFVKSDVEINYSLIEIKLYTKHGTLKYQTDCAPNNGYFMIPLYDKGDFILKIEPPLGWSFEPTTVELHVDGVSDICTKGGDINFVFTGFSVNGKVLSKGQPLGPAGVQVSLRNTGTEAKIQSTVTQPGGKFAFFKVLPGDYEILATHPTWALKEASTTVRVTNSNANAASPLIVAGYNVSGSVRSDGEPMKGVKFLLFSSLVTKEDVLGCNVSPVPGFQPQDESLVYLCYTVSREDGSFSFYSLPSGGYTVIPFYRGERITFDVAPSRLDFTVEHDSLKIEPVFHVMGFSVTGRVLNGPEGDGVPEAVVTLNNQIKVKTKADGSFRLENITTGTYTIHAQKEHLYFETVTIKIAPNTPQLADIIATGFSVCGQISIIRFPDTVKQMNKYKVVLSSQDKDKSLVTVETDAHGSFCFKAKPGTYKVQVMVPEAETRAGLTLKPQTFPLTVTNRPMMDVAFVQFLASVSGKVSCLDTCGDLLVTLQSLSRQGEKRSLQLSGKVNAMTFTFDNVLPGKYKISIMHEDWCWKNKSLEVEVLEDDMSAVEFRQTGYMLRCSLSHAITLEFYQDGNGRENVGIYNLSKGVNRFCLSKPGVYKVTPRSCHRFEQAFYTYDTSSPSILTLTAIRHHVLGTITTDKMMDVTVTIKSSIDSEPALVLGPLKSVQELRREQQLAEIEARRQEREKNGNEEGEERMTKPPVQEMVDELQGPFSYDFSYWARSGEKITVTPSSKELLFYPPSMEAVVSGESCPGKLIEIHGKAGLFLEGQIHPELEGVEIVISEKGASSPLITVFTDDKGAYSVGPLHSDLEYTVTSQKEGYVLTAVEGTIGDFKAYALAGVSFEIKAEDDQPLPGVLLSLSGGLFRSNLLTQDNGILTFSNLSPGQYYFKPMMKEFRFEPSSQMIEVQEGQNLKITITGYRTAYSCYGTVSSLNGEPEQGVAMEAVGQNDCSIYGEDTVTDEEGKFRLRGLLPGCVYHVQLKAEGNDHIERALPHHRVIEVGNNDIDDVNIIVFRQINQFDLSGNVITSSEYLPTLWVKLYKSENLDNPIQTVSLGQSLFFHFPPLLRDGENYVVLLDSTLPRSQYDYILPQVSFTAVGYHKHITLIFNPTRKLPEQDIAQGSYIALPLTLLVLLAGYNHDKLIPLLLQLTSRLQGVRALGQAASDNSGPEDAKRQAKKQKTRRT
As for B1, the “stoichiometry N” value in the series “SEC-MALS” was found to be 2.
